# Measurements as given in article PMC6189496, “Epstein-Barr Virus Nuclear Antigen 3C Inhibits Expression of COBLL1 and the ADAM28-ADAMDEC1 Locus via Interaction with the Histone Lysine Demethylase KDM2B” (Journal of Virology, 2018).
# Changes are numbered by the printed parent chain. Names and notes keep the numbering of the source.
# B1: EBNA3C HDmut (209TFGC212 mutated to 209AAAA212) (natural protein)
# chain: MESFEGQGDSRQSPDNERGDNVQTTGEHDQDPGPGPPSSGASERLVPEESYSRDQQPWGQSRGDENRGWMQRIRRRRRRRAALSGHLLDTEDNVPPWLPPHDITPYTARNIRDAACRAVKQSHLQALSNLILDSGLDTQHILCFVMAARQRLQDIRRGPLVAEGGVGWRHWLLTSPSQSWPMGYRTATLRTLTPVPNRVGADSIMLTAAAAAQNAARTLNTFSATVWTPPHAGPREQERYAREAEVRFLRGKWQRRYRRIYDLIELCGSLHHIWQNLLQTEENLLDFVRFMGVMSSCNNPAVNYWFHKTIGNFKPYYPWNAPPNENPYHARRGIKEHVIQNAFRKAQIQGLSMLATGGEPRGDATSETSSDEDTGRQGSDVELESSDDELPYIDPNMEPVQQRPVMFVSRVPAKKPRKLPWPTPKTHPVKRTNVKTSDRSDKAEAQSTPERPGPSEQSSVTVEPAHPTPVEMPMVILHQPPPVPKPVPVKPTPPPSRRRRGACVVYDDDVIEVIDVETTEDSSSVSQPNKPHRKHQDGFQRSGRRQKRAAPPTVSPSDTGPPAVGPPAAGPPAAGPPAAGPPAAGPPAAGPPAAGPRILAPLSAGPPAAGPHIVTPPSARPRIMAPPVVRMFMRERQLPQSTGRKPQCFWEMRAGREITQMQQEPSSHLQSATQPTTPRPSWAPSVCALSVMDAGKAQPIESSHLSSMSPTQPISHEEQPRYEDPDAPLDLSLHPDVAAQPAPQAPYQGYQEPPAPQAPYQGYQEPPPPQAPYQGYQEPPAHGLQSSSYPGYAGPWTPRSQHPCYRHPWAPWSQDPVHGHTQGPWDPRAPHLPPQWDGSAGHGQDQVSQFPHLQSETGPPRLQLSLVPLVSSSAPSWSSPQPRAPIRPIPTRFPPPPMPLQDSMAVGCDSSGTACPSMPFASDYSQGAFTPLDINATTPKRPRVEESSHGPARCSQATAEAQEILSDNSEISVFPKDAKQTDYDASTESELD
# notes: EBNA3C of Epstein-Barr virus, strain B95.8, with the TFGC (homology domain) motif mutated to alanines; also called homology domain mutant
# B2: EBNA3C W227S (natural protein)
# chain: B1 chain with A209T, A210F, A211G, A212C, W227S
# notes: EBNA3C of Epstein-Barr virus, strain B95.8, with W227S in the 226VWTP229 motif
# Columns and labels:
# [1] = target: T1, BMI1 (human (endogenous in LCLs), UniProt P35226 1-326); assay: co-IP; LCL extracts (10^7 cells lysed in IP buffer, precleared); the cellular protein (RBPJ, BMI1, SUZ12 or KDM2B) immunoprecipitated from 200 ug lysate overnight at 4°C, protein G-Sepharose, four washes; Western blot for EBNA3C; isotype IgG control; mutants quantified by ImageJ as percent relative IP compared to EBNA3C WT; details: partners not purified
# T1 construct: BMI1, endogenous in lymphoblastoid cell lines, immunoprecipitated with anti-BMI1 (A301-694A; Bethyl); also called PRC1 core component BMI1; source: endogenous, LCL lysate
# T1 sequence (looked up): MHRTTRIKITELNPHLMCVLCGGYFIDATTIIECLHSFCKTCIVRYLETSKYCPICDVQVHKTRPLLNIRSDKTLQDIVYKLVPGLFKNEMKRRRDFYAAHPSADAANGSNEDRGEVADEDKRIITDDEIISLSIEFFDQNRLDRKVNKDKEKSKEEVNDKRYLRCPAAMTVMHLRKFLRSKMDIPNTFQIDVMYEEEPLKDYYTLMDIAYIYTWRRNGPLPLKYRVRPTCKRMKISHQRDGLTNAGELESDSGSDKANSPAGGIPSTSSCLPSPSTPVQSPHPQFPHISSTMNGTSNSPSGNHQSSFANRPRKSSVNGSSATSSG
# [2] = target: T2, histone lysine demethylase KDM2B (human (endogenous in LCLs), UniProt Q8NHM5 1-1336); assay: as above; details: partners not purified
# T2 construct: KDM2B, endogenous in lymphoblastoid cell lines, immunoprecipitated with anti-KDM2B (09-864; Millipore); also called FBXL10; JHDM1B; source: endogenous, LCL lysate
# T2 sequence (looked up): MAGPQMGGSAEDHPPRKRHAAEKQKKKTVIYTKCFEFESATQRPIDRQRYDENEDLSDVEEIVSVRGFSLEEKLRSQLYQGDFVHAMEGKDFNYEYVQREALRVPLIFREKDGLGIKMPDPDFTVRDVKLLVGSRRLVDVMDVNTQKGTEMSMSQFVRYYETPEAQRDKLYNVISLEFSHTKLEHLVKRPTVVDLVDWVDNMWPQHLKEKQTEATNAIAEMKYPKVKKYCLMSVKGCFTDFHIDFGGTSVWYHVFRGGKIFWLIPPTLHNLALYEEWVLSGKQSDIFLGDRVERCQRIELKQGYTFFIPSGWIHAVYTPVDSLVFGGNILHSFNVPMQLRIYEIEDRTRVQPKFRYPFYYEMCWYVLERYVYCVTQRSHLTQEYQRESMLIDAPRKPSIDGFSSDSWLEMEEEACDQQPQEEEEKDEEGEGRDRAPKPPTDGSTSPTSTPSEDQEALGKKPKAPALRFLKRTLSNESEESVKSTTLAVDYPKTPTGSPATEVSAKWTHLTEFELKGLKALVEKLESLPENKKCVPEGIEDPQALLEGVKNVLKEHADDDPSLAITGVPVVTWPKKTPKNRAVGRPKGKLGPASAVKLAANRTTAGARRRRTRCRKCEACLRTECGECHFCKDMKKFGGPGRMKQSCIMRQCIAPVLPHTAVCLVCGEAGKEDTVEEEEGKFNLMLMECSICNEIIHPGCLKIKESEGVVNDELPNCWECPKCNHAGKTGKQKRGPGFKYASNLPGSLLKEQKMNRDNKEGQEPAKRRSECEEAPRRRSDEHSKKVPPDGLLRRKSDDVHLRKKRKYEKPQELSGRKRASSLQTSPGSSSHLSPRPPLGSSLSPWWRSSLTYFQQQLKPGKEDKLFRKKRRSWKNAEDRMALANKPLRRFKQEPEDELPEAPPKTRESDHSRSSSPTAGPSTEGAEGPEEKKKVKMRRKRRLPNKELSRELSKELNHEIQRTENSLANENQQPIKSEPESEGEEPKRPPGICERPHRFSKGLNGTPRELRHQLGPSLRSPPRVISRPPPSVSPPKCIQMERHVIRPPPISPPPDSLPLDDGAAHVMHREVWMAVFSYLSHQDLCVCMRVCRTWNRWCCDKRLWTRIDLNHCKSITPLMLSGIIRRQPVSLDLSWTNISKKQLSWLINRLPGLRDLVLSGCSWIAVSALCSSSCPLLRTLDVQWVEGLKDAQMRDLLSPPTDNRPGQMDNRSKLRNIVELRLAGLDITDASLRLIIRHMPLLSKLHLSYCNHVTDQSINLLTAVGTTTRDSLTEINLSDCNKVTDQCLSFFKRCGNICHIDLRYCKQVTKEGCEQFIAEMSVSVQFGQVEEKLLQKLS
Binder,percent relative IP compared to EBNA3C WT [1],percent relative IP compared to EBNA3C WT [2]
B1,60%,8%
B2,,80%
